The test system of one series is isolated rat aorta rings. Description: PE-induced contraction of isolated rat aorta rings. The class given is cell-based. As to the method:
FIG. 1A is a diagram describing the results of experiments on the effect of tPA on PE-induced contraction of isolated rat aorta rings. Contraction of aortic rings was induced by increasing the concentrations of phenylephrine (PE), in the absence of tPA (full triangles) or in the presence of 1 nM (filled squares) or 20 nM tPA (empty squares).
FIG. 1B describes the results of experiments in which the contraction of aortic rings was induced in the absence of TNK-tPA (filled triangles), in the presence of 1 nM tPA (filled squares) or 20 nM tPA (empty squares).
FIG. 4 is a graph describing the effect of tPA on phenylepbrine-induced contraction of isolated rat aorta rings in vitro. The contraction of the aorta rings was induced by varying concentrations of phenylephrine in the absence of tPA (filled triangles), in the presence of 1 nM of TA (filled squares) or in the presence of 10 nM tPA (empty squares). The experiments were performed according to procedures described earlier by Haj-Yehia A et al., FASEB J, 2000, 14:1411–1422.
The effect of TNK-tPA on PE-induced contraction was compared with the effect of tPA, in the isolated aorta rings. […]

The target of series [1] is plasminogen activator inhibitor-1 (PAI-1) (Homo sapiens, UniProt P05121). The note with it: higher than tPA; cited from earlier work.
plasminogen activator inhibitor-1 (PAI-1), sequence (P05121 24-402, species assumed): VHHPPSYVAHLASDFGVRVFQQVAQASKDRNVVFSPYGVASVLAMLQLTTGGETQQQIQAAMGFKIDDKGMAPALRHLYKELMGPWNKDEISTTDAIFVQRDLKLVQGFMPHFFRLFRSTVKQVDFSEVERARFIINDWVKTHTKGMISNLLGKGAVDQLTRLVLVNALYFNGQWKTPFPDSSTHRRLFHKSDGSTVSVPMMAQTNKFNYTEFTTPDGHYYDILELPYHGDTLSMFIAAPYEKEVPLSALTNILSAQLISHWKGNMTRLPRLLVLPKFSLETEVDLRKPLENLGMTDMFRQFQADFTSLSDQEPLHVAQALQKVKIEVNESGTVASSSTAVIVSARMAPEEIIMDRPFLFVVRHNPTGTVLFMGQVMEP
Another series has as its target T1, fibrin (Homo sapiens, UniProt P02671+P02675+P02679).
T1 sequence (P02671 20-644 isoform P02671-2 limits assumed): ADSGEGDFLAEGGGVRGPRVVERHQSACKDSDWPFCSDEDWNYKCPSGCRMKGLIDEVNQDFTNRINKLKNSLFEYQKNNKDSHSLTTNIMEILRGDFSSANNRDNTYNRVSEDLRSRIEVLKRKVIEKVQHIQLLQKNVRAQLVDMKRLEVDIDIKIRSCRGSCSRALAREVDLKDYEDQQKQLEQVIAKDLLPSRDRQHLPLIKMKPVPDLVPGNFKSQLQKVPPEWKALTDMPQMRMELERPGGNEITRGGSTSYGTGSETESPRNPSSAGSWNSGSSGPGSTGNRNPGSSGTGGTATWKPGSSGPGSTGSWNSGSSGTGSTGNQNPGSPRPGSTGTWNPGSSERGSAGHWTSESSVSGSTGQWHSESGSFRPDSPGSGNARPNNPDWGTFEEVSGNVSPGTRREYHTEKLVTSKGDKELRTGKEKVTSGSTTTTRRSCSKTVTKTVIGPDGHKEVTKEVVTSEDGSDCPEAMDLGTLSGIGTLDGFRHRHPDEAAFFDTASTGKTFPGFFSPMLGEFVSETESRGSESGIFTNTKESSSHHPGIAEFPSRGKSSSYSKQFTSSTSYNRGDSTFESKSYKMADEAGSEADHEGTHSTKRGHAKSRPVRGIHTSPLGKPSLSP
T1 sequence (P02675 45-491 limits assumed): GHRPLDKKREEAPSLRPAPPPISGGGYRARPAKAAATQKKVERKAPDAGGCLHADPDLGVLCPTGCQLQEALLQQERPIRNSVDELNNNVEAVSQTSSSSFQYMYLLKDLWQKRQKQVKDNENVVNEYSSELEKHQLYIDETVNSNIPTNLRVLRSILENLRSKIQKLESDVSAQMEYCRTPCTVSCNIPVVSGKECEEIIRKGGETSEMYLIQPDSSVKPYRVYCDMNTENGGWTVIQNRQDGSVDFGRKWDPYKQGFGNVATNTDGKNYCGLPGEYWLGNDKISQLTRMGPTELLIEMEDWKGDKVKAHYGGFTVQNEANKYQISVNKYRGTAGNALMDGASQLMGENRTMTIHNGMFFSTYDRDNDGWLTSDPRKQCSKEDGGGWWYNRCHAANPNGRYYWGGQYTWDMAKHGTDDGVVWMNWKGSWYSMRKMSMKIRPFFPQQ
T1 sequence (P02679 27-437 isoform P02679-2 limits assumed): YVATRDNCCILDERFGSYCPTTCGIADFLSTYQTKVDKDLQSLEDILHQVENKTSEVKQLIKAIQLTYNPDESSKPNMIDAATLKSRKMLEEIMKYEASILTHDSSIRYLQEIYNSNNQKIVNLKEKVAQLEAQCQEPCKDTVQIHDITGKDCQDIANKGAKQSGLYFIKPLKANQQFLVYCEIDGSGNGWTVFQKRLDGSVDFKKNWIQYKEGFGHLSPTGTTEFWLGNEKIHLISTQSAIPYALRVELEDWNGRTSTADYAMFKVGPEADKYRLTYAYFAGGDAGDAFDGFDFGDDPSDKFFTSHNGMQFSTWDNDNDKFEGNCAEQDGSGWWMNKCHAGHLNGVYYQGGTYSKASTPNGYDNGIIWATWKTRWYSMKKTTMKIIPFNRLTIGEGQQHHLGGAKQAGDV
The note with it: greater than tPA; cited from earlier work.

The conditions of series [2]: in vitro, cited from earlier work.
For series [3] the following is noted: rabbits, arterial venous shunt; cited from earlier work.
For series [4] the following is noted: cited from earlier work.

Where two headings read alike, the source gives them in different places.

B1: TNK-tPA: bioengineered variant of tissue-type plasminogen activator with tetra-alanine substitution in the protease domain (protein)
chain: SYQVICRDEKTQMIYQQHQSWLRPVLRSNRVEYCWCNSGRAQCHSVPVKSCSEPRCFNGGTCQQALYFSDFVCQCPEGFAGKCCEIDTRATCYEDQGISYRGTWSTAESGAECTNWNSSALAQKPYSGRRPDAIRLGLGNHNYCRNPDRDSKPWCYVFKAGKYSSEFCSTPACSEGNSDCYFGNGSAYRGTHSLTESGASCLPWNSMILIGKVYTAQNPSAQALGLGKHNYCRNPDGDAKPWCHVLKNRRLTWEYCDVPSCSTCGLRQYSQPQFRIKGGLFADIASHPWQAAIFAAAAASPGERFLCGGILISSCWILSAAHCFQERFPPHHLTVILGRTYRVVPGEEEQKFEVEKYIVHKEFDDDTYDNDIALLQLKSDSSRCAQESSVVRTVCLPPADLQLPDWTECELSGYGKHEALSPFYSERLKEAHVRLYPSSRCTSQHLLNRTVTDNMLCAGDTRSGGPQANLHDACQGDSGGPLVCLNDGRMTLVGIISWGLGCGQKDVPGVYTKVTNYLDWIRDNMRP
Turning to B1, the “effect on PE-induced vasoconstriction” value with isolated rat aorta rings (1 nM) is given as “stimulated”; in the series with isolated rat aorta rings (20 nM), “increased its stimulatory effect”. Further, in series [1], the “resistance to PAI-1 relative to tPA” value is 80 fold. For the same molecule, the relative fibrin specificity with fibrin is on record as 14 fold. The “potency relative to tPA” value in series [2] (platelet-enriched clots) is 13 fold; in series [2] (whole blood clots) it was 8 fold. The “time required for 50% lysis relative to rtPA” value in series [3] was “one third”. Also, the “efficacy compared with rtPA” value in series [4] (comparative clinical trials) is on record as “equivalent efficacy”. Moreover, the non-cerebral bleeding episodes in series [4] (in vivo) is given as 4.66%. For the same molecule, the “rate of intracranial hemorrhage compared with rtPA” value in series [4] (in vivo) was “similar”.

The values are drawn from US7271143B1, “Peptides for regulation of urokinase (uPA) and tissue type (tPA) plasminogen activator and method of optimizing therapeutic efficacy” (Thrombotech Ltd., priority 2001, dated 2007).
